Reference: US20190225692A1 (JUNO THERAPEUTICS, published 2019)

Target: T1, HLA-A2/E7 (11-19) tetramer (human; HPV 16)
T1 construct: also called E7(11-19) peptide-MHC tetramer; E7 (11-19)-loaded tetramer
Experiment: tetramer flow cytometry; transfected 1:1 CD4+ and CD4+/CD8+ Jurkat-derived cells;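 as to % cells in E6 tet+/CD8+ quadrant: cell mixtures transiently transfected with TCR-encoding plasmids, analysed by flow cytometry 48 h later after HLA-A*02:01 E6 tetramer staining combined with anti-CD8 antibody co-staining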;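 as to % cells in E6 tet+/CD8- quadrant: cell mixtures transiently transfected with TCR-encoding plasmids, analysed by flow cytometry 48 h later after HLA-A*02:01 E6 tetramer staining combined with anti-CD8 antibody co-staining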;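 as to % cells in E7 tet+/CD8+ quadrant: cells transiently transfected with TCR plasmids, stained 48 h later with HLA-A*02:01 peptide-MHC tetramer plus anti-CD8 antibody, read by flow cytometry to assess CD8-independent tetramer binding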;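 as to % cells in E7 tet+/CD8- quadrant: cells transiently transfected with TCR plasmids, stained 48 h later with HLA-A*02:01 peptide-MHC tetramer plus anti-CD8 antibody, read by flow cytometry to assess CD8-independent tetramer binding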
Description: (§1) For transfection, the CD4+ and CD4+/CD8+ cell mixtures were transiently transfected with TCR-encoding plasmids and 48 hours after transfection, cells were assessed by flow cytometry for (1) binding of the target peptide in the context of an MHC molecule (HLA:A02:01) by staining with an E6(29-38) peptide- or an E7(11-19) peptide-MHC tetramer reagent, and/or (2) CD8+ independent binding of the target by co-staining the tetramer-labeled cells with an anti-CD8 antibody.

Binder | % cells in E7 tet+/CD8+ quadrant [%] | % cells in E7 tet+/CD8- quadrant [%] | % cells in E7 tet-/CD8+ quadrant [%] | % cells in E7 tet-/CD8- quadrant [%]
TCR 51 (codon optimized, cysteine modified version) (TCR, V domains shown) V domain 1: QKEVEQNSGPLSVPEGAIASLNCTYSDRGSQSFFWYRQYSGKSPELIMSIYSNGDKEDGRFTAQLNKASQYVSLLIRDSQPSDSATYLCAVNMRGGGSNYKLTFGKGTLLTVNP V domain 2: EPEVTQTPSHQVTQMGQEVILRCVPISNHLYFYWYRQILGQKVEFLVSFYNNEISEKSEIFDDQFSVERPDGSNFTLKIRSTKLEDSAMYFCAIASRVSYEQYFGPGTRLTVTE | 5.7 | 2.06 | 27.5 | 64.7
TCR 53 (codon optimized, cysteine modified version) (TCR, V domains shown) V domain 1: AQSVAQPEDQVNVAEGNPLTVKCTYSVSGNPYLFWYVQYPNRGLQFLLKYITGDNLVKGSYGFEAEFNKSQTSFHLKKPSALVSDSALYFCAVRDFGSGTYKYIFG V domain 2: GAGVSQSPRYKVTKRGQDVALRCDPISGHVSLYWYRQALGQGPEFLTYFNYEAQQDKSGLPNDRFSAERPEGSISTLTIQRTEQRDSAMYRCASSGSGTSGYNEQFFGPGTRLTVLE | 3.35 | 0.43 | 28.7 | 67.5
TCR 55 (codon optimized, cysteine modified version) (TCR) TCR alpha: GEDVEQSLFLSVREGDSSVINCTYTDSSSTYLYWYKQEPGAGLQLLTYIFSNMDMKQDQRLTVLLNKKDKHLSLRIADTQTGDSAIYFCAVPSGATNKLIFGTGTLLAVQPNIQNPDPAVYQLRDSKSSDKSVCLFTDFDSQTNVSQSKDSDVYITDKCVLDMRSMDFKSNSAVAWSNKSDFACANAFNNSIIPEDTFFPSPESSCDVKLVEKSFETDTNLNFQNLSVIGFRILLLKVAGFNLLMTLRLWSS TCR beta: EPEVTQTPSHQVTQMGQEVILRCVPISNHLYFYWYRQILGQKVEFLVSFYNNEISEKSEIFDDQFSVERPDGSNFTLKIRSTKLEDSAMYFCASTTRSSYEQYFGPGTRLTVTEDLKNVFPPEVAVFEPSEAEISHTQKATLVCLATGFYPDHVELSWWVNGKEVHSGVCTDPQPLKEQPALNDSRYCLSSRLRVSATFWQNPRNHFRCQVQFYGLSENDEWTQDRAKPVTQIVSAEAWGRADCGFTSESYQQGVLSATILYEILLGKATLYAVLVSALVLMAMVKRKDSRG | 1.45 | 0.28 | 50.4 | 47.9

Target: T2, HLA-A2/E6 (29-38) tetramer (human; HPV 16)
T2 construct: also called E6(29-38) peptide-MHC tetramer; E6(29-38)-loaded tetramer
Experiment: tetramer flow cytometry; transfected Jurkat-derived cells, CD8+ population
Description: as §1

Binder | % cells in E6 tet+/CD8+ quadrant [%] | % cells in E6 tet+/CD8- quadrant [%] | % cells in E6 tet-/CD8+ quadrant [%] | % cells in E6 tet-/CD8- quadrant [%]
modified version of TCR 13 (codon optimized, cysteine modified) (TCR, V domains shown) V domain 1: AQSVTQLDSHVSVSEGTPVLLRCNYSSSYSPSLFWYVQHPNKGLQLLLKYTSAATLVKGINGFEAEFKKSETSFHLTKPSAHMSDAAEYFCVVRGGKLIFGQGTELSVKP V domain 2: GAGVSQSPRYKVAKRGQDVALRCDPISGHVSLFWYQQALGQGPEFLTYFQNEAQLDKSGLPSDRFFAERPEGSVSTLKIQRTQQEDSAVYLCASSPTGTERELFFGEGSRLTVLE | 38.6 | 0.064 | 59.5 | 1.82
modified version of TCR 14 (codon optimized, cysteine modified) (TCR) TCR alpha: ILNVEQSPQSLHVQEGDSTNFTCSFPSSNFYALHWYRWETAKSPEALFVMTLNGDEKKKGRISATLNTKEGYSYLYIKGSQPEDSATYLCASQTGANNLFFGTGTRLTVIPYIQNPDPAVYQLRDSKSSDKSVCLFTDFDSQTNVSQSKDSDVYITDKCVLDMRSMDFKSNSAVAWSNKSDFACANAFNNSIIPEDTFFPSPESSCDVKLVEKSFETDTNLNFQNLSVIGFRILLLKVAGFNLLMTLRLWSS TCR beta: DVKVTQSSRYLVKRTGEKVFLECVQDMDHENMFWYRQDPGLGLRLIYFSYDVKMKEKGDIPEGYSVSREKKERFSLILESASTNQTSMYLCASTFWGQRRTEAFFGQGTRLTVVEDLNKVFPPEVAVFEPSEAEISHTQKATLVCLATGFFPDHVELSWWVNGKEVHSGVCTDPQPLKEQPALNDSRYCLSSRLRVSATFWQNPRNHFRCQVQFYGLSENDEWTQDRAKPVTQIVSAEAWGRADCGFTSVSYQQGVLSATILYEILLGKATLYAVLVSALVLMAMVKRKDF | 38.4 | 0.04 | 59.7 | 1.8
TCR 22 (codon optimized, cysteine modified version) (TCR, V domains shown) V domain 1: GQNIDQPTEMTATEGAIVQINCTYQTSGFNGLFWYQQHAGEAPTFLSYNVLDGLEEKGRFSSFLSRSKGYSYLLLKELQMKDSASYLCAVRARMDSNYQLIWGAGTKLIIKP V domain 2: DAGVTQSPTHLIKTRGQHVTLRCSPISGHKSVSWYQQVLGQGPQFIFQYYEKEERGRGNFPDRFSARQFPNYSSELNVNALLLGDSALYLCASSRTENYGYTFGSGTRLTVVE | 51.2 | 0.14 | 47.3 | 1.38

Target: T2, HLA-A2/E6 (29-38) tetramer
Experiment: tetramer flow cytometry; transfected 1:1 CD4+ and CD4+/CD8+ Jurkat-derived cells;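 as to % cells in E6 tet+/CD8+ quadrant: cell mixtures transiently transfected with TCR-encoding plasmids, analysed by flow cytometry 48 h later after HLA-A*02:01 E6 tetramer staining combined with anti-CD8 antibody co-staining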;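 as to % cells in E6 tet+/CD8- quadrant: cell mixtures transiently transfected with TCR-encoding plasmids, analysed by flow cytometry 48 h later after HLA-A*02:01 E6 tetramer staining combined with anti-CD8 antibody co-staining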;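 as to % cells in E7 tet+/CD8+ quadrant: cells transiently transfected with TCR plasmids, stained 48 h later with HLA-A*02:01 peptide-MHC tetramer plus anti-CD8 antibody, read by flow cytometry to assess CD8-independent tetramer binding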;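 as to % cells in E7 tet+/CD8- quadrant: cells transiently transfected with TCR plasmids, stained 48 h later with HLA-A*02:01 peptide-MHC tetramer plus anti-CD8 antibody, read by flow cytometry to assess CD8-independent tetramer binding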
Description: as §1

Binder | % cells in E6 tet+/CD8+ quadrant [%] | % cells in E6 tet+/CD8- quadrant [%] | % cells in E6 tet-/CD8+ quadrant [%] | % cells in E6 tet-/CD8- quadrant [%]
TCR 15 (codon optimized, cysteine modified version) (TCR, V domains shown) V domain 1: AQKITQTQPGMFVQEKEAVTLDCTYDTSDQSYGLFWYKQPSSGEMIFLIYQGSYDEQNATEGRYSLNFQKARKSANLVISASQLGDSAMYFCAMKPGGYNKLIFGAGTRLAVHP V domain 2: DAGVIQSPRHEVTEMGQEVTLRCKPISGHNSLFWYRQTMMRGLELLIYFNNNVPIDDSGMPEDRFSAKMPNASFSTLKIQPSEPRDSAVYFCASSLVGRSRTEQYFGPGTRLTVTE | 21.4 | 40.2 | 13.6 | 24.8
TCR 16 (codon optimized, cysteine modified version) (TCR, V domains shown) V domain 1: KQEVTQIPAALSVPEGENLVLNCSFTDSAIYNLQWFRQDPGKGLTSLLLIQSSQREQTSGRLNASLDKSSGRSTLYIAASQPGDSATYLCAVRPANNNDMRFGAGTRLTVKP V domain 2: DVKVTQSSRYLVKRTGEKVFLECVQDMDHENMFWYRQDPGLGLRLIYFSYDVKMKEKGDIPEGYSVSREKKERFSLILESASTNQTSMYLCASSLWGRSNQPQHFGDGTRLSILE | 35.6 | 28.2 | 9.51 | 26.7
TCR 19 (codon optimized, cysteine modified version) (TCR, V domains shown) V domain 1: AQKITQTQPGMFVQEKEAVTLDCTYDTSDQSYGLFWYKQPSSGEMIFLIYQGSYDEQNATEGRYSLNFQKARKSANLVISASQLGDSAMYFCAMRENTGTASKLTFGTGTRLQVTL V domain 2: DVKVTQSSRYLVKRTGEKVFLECVQDMDHENMFWYRQDPGLGLRLIYFSYDVKMKEKGDIPEGYSVSREKKERFSLILESASTNQTSMYLCASSSWGQSTGEQYFGPGTRLTVTE | 35.5 | 20.8 | 7.71 | 36
TCR 20 (codon optimized, cysteine modified version) (TCR, V domains shown) V domain 1: AQKVTQAQTEISVVEKEDVTLDCVYETRDTTYYLFWYKQPPSGELVFLIRRNSFDEQNEISGRYSWNFQKSTSSFNFTITASQVVDSAVYFCALWTGANNLFFGTGTRLTVIP V domain 2: GAVVSQHPSRVICKSGTSVKIECRSLDFQATTMFWYRQFPKQSLMLMATSNEGSKATYEQGVEKDKFLINHASLTLSTLTVTSAHPEDSSFYICSASSLARRSYEQYFGPGTRLTVTE | 38.2 | 34.1 | 5.17 | 22.6
TCR 25 (codon optimized, cysteine modified version) (TCR, V domains shown) V domain 1: AQKITQTQPGMFVQEKEAVTLDCTYDTSDQSYGLFWYKQPSSGEMIFLIYQGSYDEQNATEGRYSLNFQKARKSANLVISASQLGDSAMYFCAMREGSLTGGGNKLTFGTGTQLKVEL V domain 2: DVKVTQSSRYLVKRTGEKVFLECVQDMDHENMFWYRQDPGLGLRLIYFSYDVKMKEKGDIPEGYSVSREKKERFSLILESASTNQTSMYLCASSLWGQSNQPQHFGDGTRLSILE | 34 | 14.7 | 10.2 | 41.1
TCR 26 (codon optimized, cysteine modified version) (TCR, V domains shown) V domain 1: AQKITQTQPGMFVQEKEAVTLDCTYDTSDQSYGLFWYKQPSSGEMIFLIYQGSYDEQNATEGRYSLNFQKARKSANLVISASQLGDSAMYFCAMRDARNNDMRFGAGTRLTVKP V domain 2: NAGVTQTPKFRVLKTGQSMTLLCAQDMNHEYMYWYRQDPGMGLRLIHYSVGEGTTAKGEVPDGYNVSRLKKQNFLLGLESAAPSQTSVYFCASSYYASGRNYEQYFGPGTRLTVTE | 42.3 | 47.4 | 1.58 | 8.73
TCR 28 (codon optimized, cysteine modified version) (TCR, V domains shown) V domain 1: RKEVEQDPGPFNVPEGATVAFNCTYSNSASQSFFWYRQDCRKEPKLLMSVYSSGNEDGRFTAQLNRASQYISLLIRDSKLSDSATYLCVVRGGGTSYGKLTFGQGTILTVHP V domain 2: DVKVTQSSRYLVKRTGEKVFLECVQDMDHENMFWYRQDPGLGLRLIYFSYDVKMKEKGDIPEGYSVSREKKERFSLILESASTNQTSMYLCASSLWGRSSGNTIYFGEGSWLTVVE | 13.1 | 0.15 | 31.4 | 55.4
TCR 29 (codon optimized, cysteine modified version) (TCR, V domains shown) V domain 1: AQKITQTQPGMFVQEKEAVTLDCTYDTSDQSYGLFWYKQPSSGEMIFLIYQGSYDEQNATEGRYSLNFQKARKSANLVISASQLGDSAMYFCAMRLNTGTASKLTFGTGTRLQVTL V domain 2: DGGITQSPKYLFRKEGQNVTLSCEQNLNHDAMYWYRQDPGQGLRLIYYSQIVNDFQKGDIAEGYSVSREKKESFPLTVTSAQKNPTAFYLCASSPWGRATNEQFFGPGTRLTVLE | 35.6 | 44.5 | 2 | 17.9
TCR 30 (codon optimized, cysteine modified version) (TCR, V domains shown) V domain 1: DAKTTQPPSMDCAEGRAANLPCNHSTISGNEYVYWYRQIHSQGPQYIIHGLKNNETNEMASLIITEDRKSSTLILPHATLRDTAVYYCIVRGTSVLQGNEKLTFGTGTRLTIIP V domain 2: EPEVTQTPSHQVTQMGQEVILRCVPISNHLYFYWYRQILGQKVEFLVSFYNNEISEKSEIFDDQFSVERPDGSNFTLKIRSTKLEDSAMYFCASSRQPSSGNTIYFGEGSWLTVVE | 31 | 0.74 | 13.9 | 54.3
